Reference: the nanobody polyreactivity screen of Harvey et al. (2022)

test: yeast display, Sf9 membrane polyspecificity reagent, FACS + sequencing; frameworks hold sequencing errors
Method in brief: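 After 36–48 hours of galactose induction, yeast (Saccharomyces cerevisiae BJ5465) displaying a synthetic nanobody library were stained at 4 °C for 1 hour with 10% biotinylated, detergent-solubilized Sf9 membrane reagent. Streptavidin microbeads enriched the stained cells before FACS sorting into low and high (top ~1%) gates on anti-HA and streptavidin fluorescence. Each clone's polyreactivity label reflects its gate of origin.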

Sequence | polyreactivity (PSR sort gate)
QVQLVESGGGLVQAGGSLRLSCAASGSTFLKYAMGWYKHAPWKERELVAAITYRGGTTYYADSVKGRFTISRDNAKNSVYFQMNSLKPVDTAVYYCNARRDYDMDWGQGTLVTVSS | high polyreactivity
QVQLVESGGGLVQAGGSLRLSCAASGSTFLKYAMVWYRQAPGKERELVAAITSDGTTYADSVKGRFTISRDNAKNTVYLQMNSLKPEDTAVYYCAKDYRHPTFDYWGQGTQVTVSS | low polyreactivity
QVQLVESGGGLVQAGGSLRLSCAASGSTFLKYDMGWYRQAPGKERELVAAISWDGGSTYYADSVKGRFTISRDNAKNTVYLQMNSLKPEDTAVYYCNADYDVYLTIWYYYGEFDYWGQGTQVTVSS | low polyreactivity
QVQLVESGGGLVQAGGSLRLSCAASGSTFLLNTMGWYRQAPGKERELVAVINSDDSTYYADSVKGRFTISRDNAKNTVYLQMNSLKPEDTAVYYCAAEPQYTRHMDSWGQGTQVTVSS | low polyreactivity
QVQLVESGGGLVQAGGSLRLSCAASGSTFLLYDMGWYRQAPGKERELVAAITWSGGSTYYADSVKGRFTISRDNAKNTVYLQMNSLKPEDTEVYYCAADSLGDRYYYWGQGTQVTVSS | low polyreactivity
QVQLVESGGGLVQAGGSLRLSCAASGSTFLNNAMGWYRQAPGKERELVATITSGGITNYADSVKGRFTISRDNEKNTVYLQMNSLKPEDTAVYYCNADTWGFTYYYWGQGTQVTVSS | low polyreactivity
QVQLVESGGGLVQAGGSLRLSCAASGSTFLNYAMGWYRQAPGKERELVAAISFSGGRTYYADSVKGRFTISRDIAKNTVYLQMNSLKPEDTAVYYCGAGGWRGHYYCGQGTQVTVSS | high polyreactivity
QVQLVESGGGLVQAGGSLRLSCAASGSTFLPYAMGWYRQAPGKERELVAAIDWNGGRTYYADSVKGRFTISRDNAKNTVYLQMNSLKPEDTAVYYCAKLGRAAQGNYYWGQGTQVTVSS | high polyreactivity
QVQLVESGGGLVQAGGSLRLSCAASGSTFLPYAMGWYRQAPGKERELVAAITWRTGSTYYADSVKGRFTISRDNAKNTVYLQMNSLKPEDTAVYYCNAKQRGKFDYWGQGTQVTVSS | low polyreactivity
QVQLVESGGGLVQAGGSLRLSCAASGSTFLRNAMGWYRQAPGKEWELVATISTGSGRTYYADSVKGRFTISRDNAKNTVYLQMHSLKPEDTAVYYCAASRTLRKHRYEYWGQGTQVTVSS | high polyreactivity
QVQLVESGGGLVQAGGSLRLSCAASGSTFLRNVMGWYRQAPGKERELVAAISSRGGSTHYADSVQGRFTISRDNAKHTVYLQMNSLKPEDTAVYYCNAERTAAQYVRAAYDYWGLGTQVTVSS | low polyreactivity
QVQLVESGGGLVQAGGSLRLSCAASGSTFLTNAMGWYRQAPGKERELVAAIRTSGGSTYYADSVKGRFTSSRDNAKKTVYVLMNSLKPEDTAVYYCAASYRRRRFSEYYYWGQGTQVTVAS | high polyreactivity
QVQLVESGGGLVQAGGSLRLSCAASGSTFLTYAMGWYRQAPGKERELVAGISYSTGSTYYADSVKGRFTISRDNAKNTVYLQMHSLKPEDTAVYYCAADEWDGLRYYYYFNYEYWGQGTQVTVSS | low polyreactivity
QVQLVESGGGLVQAGGSLRLSCAASGSTFLTYAMGWYRQAPGKERELVASISRSGSTNYADSVKGRFTISRDNAKNTVYLQLNSLKPEDTAVYYCAADHTRYSSSWYYKQYYYWGQGTQVTVSS | low polyreactivity
QVQLVESGGGLVQAGGSLRLSCAASGSTFLVYAMGWYRQAPGKEMEFVAAISWSGGSTFYADSVKGRFTISRDNAKNTVYLQMNSLKPVDTAVYYCAARQAGYSGRKLYYWGQGTQVTVSS | low polyreactivity
QVQLVESGGGLVQAGGSLRLSCAASGSTFLVYAMGWYRQAPGKERELVAAITRRSTSTFYADSVKGRFTISRVNAKNTVYLQMNSLKPEDTAVYYWAADTRFISRENYWGQGTQVTVSS | high polyreactivity
QVQLVESGGGLVQAGGSLRLSCAASGSTFLVYAMGWYRQAPGKERELVAVIDNGGDTYYADSVKGRFTISRDNAKNTVYLQMNSLKPEDTEVYYCAADLSYLGYWEYDYWGQGTQVTVSS | low polyreactivity
